Measured values: publication doi:10.1101/2023.08.03.551877 (bioRxiv, 2023)

B1: Rco1 (natural protein)
chain: MDTSKKDTTRSPSHSNSSSPSSSSLSSSSSKEKKRPKRLSSQNVNYDLKRRKIITSEGIERSFKNEHSNLAVEDNIPEEEPKELLEKDSKGNIIKLNEPSTISEDSKVSVTGLPLNKGPSEKIKRESLWNYRKNLGGQSNNSEMTLVPSKRFTQVPKNFQDLNRNDLKTFLTENMTEESNIRSTIGWNGDIINRTRDREPESDRDNKKLSNIRTKIILSTNATYDSKSKLFGQNSIKSTSNASEKIFRDKNNSTIDFENEDFCSACNQSGSFLCCDTCPKSFHFLCLDPPIDPNNLPKGDWHCNECKFKIFINNSMATLKKIESNFIKQNNNVKIFAKLLFNIDSHNPKQFQLPNYIKETFPAVKTGSRGQYSDENDKIPLTDRQLFNTSYGQSITKLDSYNPDTHIDSNSGKFLICYKCNQTRLGSWSHPENSRLIMTCDYCQTPWHLDCVPRASFKNLGSKWKCPLHSPTKVYKKIHHCQEDNSVNYKVWKKQRLINKKNQLYYEPLQKIGYQNNGNIQIIPTTSHTDYDFNQDFKITQIDENSIKYDFFDKIYKSKMVQKRKLFQFQESLIDKLVSNGSQNGNSEDNMVKDIASLIYFQVSNNDKSSNNKSASKSNNLRKLWDLKELTNVVVPNELDSIQFNDFSSDEIKHLLYLKKIIESKPKEELLKFLNIENPENQSE
B2: Ume1 (natural protein)
chain: MSTLDIAEDNKIKNEEFKIWKKSIPSLYQHISSLKPIFGSGVDESPSTLRSIVFTNDSSCNKSKGVLSVPLLYSQGSEIFEVDCIVPLGLHYKKPESISEPLVQPDYTMESQKVEQTVLIPKWEFKGETIAKMIYVDNSEINVKVIALSTNGSLAWFREGVKSPVYTMMEPSTSLSSASSGNQNKPCVDFAISNDSKTLTVTKEKHLDNENATIKLIDNSGKIGEVLRTIPVPGIKNIQEIKFLNNQIFATCSDDGIIRFWGNEIGKKPLWILNDSLDGKTTCFAASPFVDTLFMTGTSGGALKVWDIRAVIALGDADAELNINQGHNKVNELFKVHHFYSEQVSKIEFSSISPMEVVTIGGLGNVYHWNFEPVFAIYNEIHEDFQGIISDELEAESMAFYHTEGCRREIGENNKVNTVAYHKYIEDLVATVDSDGLLTVYKPFTGKVLDGSREVGAAKS

Assays:
Assay in all cases: cryo-EM structure
cryo-EM structure = biological target: the molecule itself
Sin3 = Sin3 (S. cerevisiae, UniProt P22579 1-1536)
Sin3, sequence (P22579 whole entry): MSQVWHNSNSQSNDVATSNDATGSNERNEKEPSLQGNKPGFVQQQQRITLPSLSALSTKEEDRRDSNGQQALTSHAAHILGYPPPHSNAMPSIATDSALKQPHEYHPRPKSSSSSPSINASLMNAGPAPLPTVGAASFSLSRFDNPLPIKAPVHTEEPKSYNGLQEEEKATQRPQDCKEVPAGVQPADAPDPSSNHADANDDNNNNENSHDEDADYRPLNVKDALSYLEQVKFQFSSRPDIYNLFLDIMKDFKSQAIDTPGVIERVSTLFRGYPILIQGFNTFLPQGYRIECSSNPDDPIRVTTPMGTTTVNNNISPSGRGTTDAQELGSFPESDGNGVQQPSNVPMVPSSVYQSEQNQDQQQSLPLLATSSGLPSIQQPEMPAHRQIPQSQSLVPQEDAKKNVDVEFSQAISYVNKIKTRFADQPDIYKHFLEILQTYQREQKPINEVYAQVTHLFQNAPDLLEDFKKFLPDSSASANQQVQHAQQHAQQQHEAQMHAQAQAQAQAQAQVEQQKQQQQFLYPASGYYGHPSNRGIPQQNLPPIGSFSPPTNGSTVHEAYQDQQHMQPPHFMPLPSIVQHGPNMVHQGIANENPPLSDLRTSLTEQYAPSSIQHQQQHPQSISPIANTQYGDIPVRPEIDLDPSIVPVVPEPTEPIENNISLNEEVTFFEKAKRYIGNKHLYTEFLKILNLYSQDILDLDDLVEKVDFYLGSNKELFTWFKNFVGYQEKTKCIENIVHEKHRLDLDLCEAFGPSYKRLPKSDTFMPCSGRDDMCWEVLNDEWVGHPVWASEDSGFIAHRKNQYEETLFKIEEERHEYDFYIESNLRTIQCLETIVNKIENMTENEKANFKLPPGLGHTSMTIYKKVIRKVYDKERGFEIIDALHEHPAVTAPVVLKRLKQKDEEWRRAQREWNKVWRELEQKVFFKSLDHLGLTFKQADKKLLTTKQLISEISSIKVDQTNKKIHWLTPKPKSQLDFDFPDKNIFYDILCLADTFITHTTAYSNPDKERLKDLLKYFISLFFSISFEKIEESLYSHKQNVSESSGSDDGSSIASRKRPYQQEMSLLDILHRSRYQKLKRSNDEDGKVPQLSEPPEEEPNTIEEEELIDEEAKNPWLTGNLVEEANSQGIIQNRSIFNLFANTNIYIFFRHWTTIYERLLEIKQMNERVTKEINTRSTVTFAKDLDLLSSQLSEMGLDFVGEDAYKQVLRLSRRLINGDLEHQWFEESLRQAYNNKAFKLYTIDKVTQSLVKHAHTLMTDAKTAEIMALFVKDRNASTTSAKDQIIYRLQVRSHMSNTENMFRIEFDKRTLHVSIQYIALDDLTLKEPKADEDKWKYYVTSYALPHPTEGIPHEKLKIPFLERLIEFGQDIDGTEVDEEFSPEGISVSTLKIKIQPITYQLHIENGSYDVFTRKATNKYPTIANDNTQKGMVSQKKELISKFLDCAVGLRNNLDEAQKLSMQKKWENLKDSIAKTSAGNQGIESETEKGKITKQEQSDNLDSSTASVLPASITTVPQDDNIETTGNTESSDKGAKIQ

Rco1 = biological target: B1
Ume1 = biological target: B2

binding result (Sin3) | binding result (Rco1) | binding result (Ume1) | Binder | binding result (cryo-EM structure)
binds | – | – | B1 | binds
binds | binds | – | Rpd3 (enzyme) MVYEATPFDPITVKPSDKRRVAYFYDADVGNYAYGAGHPMKPHRIRMAHSLIMNYGLYKKMEIYRAKPATKQEMCQFHTDEYIDFLSRVTPDNLEMFKRESVKFNVGDDCPVFDGLYEYCSISGGGSMEGAARLNRGKCDVAVNYAGGLHHAKKSEASGFCYLNDIVLGIIELLRYHPRVLYIDIDVHHGDGVEEAFYTTDRVMTCSFHKYGEFFPGTGELRDIGVGAGKNYAVNVPLRDGIDDATYRSVFEPVIKKIMEWYQPSAVVLQCGGDSLSGDRLGCFNLSMEGHANCVNYVKSFGIPMMVVGGGGYTMRNVARTWCFETGLLNNVVLDKDLPYNEYYEYYGPDYKLSVRPSNMFNVNTPEYLDKVMTNIFANLENTKYAPSVQLNHTPRDAEDLGDVEEDSAEAKDTKGGSQYARDLHVEHDNEFY | –
– | binds | binds | Eaf3 (natural protein) MVDLEQEFALGGRCLAFHGPLMYEAKILKIWDPSSKMYTSIPNDKPGGSSQATKEIKPQKLGEDESIPEEIINGKCFFIHYQGWKSSWDEWVGYDRIRAYNEENIAMKKRLANEAKEAKKSLLEQQKKKKLSTSLGGPSNGGKRKGDSRSNASISKSTSQSFLTSSVSGRKSGRSSANSLHPGSSLRSSSDQNGNDDRRRSSSLSPNMLHHIAGYPTPKISLQIPIKLKSVLVDDWEYVTKDKKICRLPADVTVEMVLNKYEHEVSQELESPGSQSQLSEYCAGLKLYFDKCLGNMLLYRLERLQYDELLKKSSKDQKPLVPIRIYGAIHLLRLISVLPELISSTTMDLQSCQLLIKQTEDFLVWLLMHVDEYFNDKDPNRSDDALYVNTSSQYEGVALGM | –
binds | – | – | B2 | –
